# Experimental data taken from patent US11464867B2, “Multimeric elastin-like polypeptides” (University of Southern California, priority 2018, dated 2022).
# “And” between values parts separate entries of the source, which are not always exact repeats. Equal values may be shown once. “Also recorded” adds a separate entry of the source.
# Columns and labels:
# [1] = Multivariate fit of the phase diagram of ELP monoblock copolymers; type: physicochemical; conditions: for Tc: critical transition temperature; for m: dependence on natural logarithm of concentration; for K: interaction term between length and concentration
# Description: The Tt of the ELP component can be modified by varying ELP chain length, as the Tt generally increases with decreasing MW. For polypeptides having a molecular weight >100,000, the hydrophobicity scale developed by Urry et al. (PCT/US96/05186, which is hereby incorporated by reference in its entirety) is preferred for predicting the approximate Tt of a specific ELP sequence. However, in some embodiments, ELP component length can be kept relatively small, while maintaining a target Tt, by incorporating a larger fraction of hydrophobic guest residues (e.g., amino acid residues having hydrophobic side chains) in the ELP sequence. For polypeptides having a molecular weight <100,000, the Tt may be predicted or determined by the following function:
# [formula] where Tc is a critical transition temperature, m is the dependence on the natural logarithm of concentration, n is the dependence on the inverse of the ELP length l, and k is an interaction term between length and concentration.
# [2] = CsA encapsulation by two-phase solvent evaporation, RP-HPLC; type: physicochemical; conditions: in words
# Procedure: The mixture was incubated at 37° C. and samples were collected at different time points up to 48 h.
# This was followed by high-speed centrifugation and filtration to remove the excess insoluble drug. […] The mobile phase flow rate was set to 1.0 ml/min. The linear gradient from 20% to 95% of methanol was applied from 0 to 5 min. Then the mobile phase was changed to 95% methanol isocratic flow for 10 min.
# This was followed by high-speed centrifugation and filtration to remove the excess insoluble drug. The loading ratio was then determined by reversed-phase high-performance liquid chromatography (RP-HPLC) analysis method.
# The drug loading capability of 2nd and 3rd generation carriers were also tested using the same encapsulation method detailed above employing the method of Shi, et al., 2013.
# [3] = Phase transition temperature by optical density (UV-Vis, 350 nm) versus temperature; type: physicochemical; conditions: for Transition temperature (Tt): at 25 μM, 1° C./min; for Slope, m: fit Tt = b - m Log10[CELP]; for Intercept, b: intercept at 1 μM; for Transition temperature at 25 μM: Table 5
# Procedure: The temperature with the maximum positive slope was defined as the phase transition temperature for each condition. (FIG. 2B) The concentration-temperature phase diagram was determined for both ELPs, and fit to the following equation: Tt=b−m Log10[CELP].
# Both ELPs at different concentrations (5 μM to 100 μM) were subject to a precisely controlled temperature increase from 25 to 75° C. at a rate of 1° C./min. The Tt of ELPs is defined as the temperature at which the first derivative of the optical density with respect to the temperature reaches a maximum.
# [4] = Isothermal titration calorimetry of 5FA/Rapa interaction; type: binding; conditions: ITC
# Description: Using Isothermal Titration calorimetry (ITC), the binding stoichiometry of 5FA/Rapa interaction was estimated to be 5. […] An overall negative Gibbs free energy (−10 kJ/mol interactions) indicates FKBP/Rapa binding is thermodynamically favorable.
# [5] = target: human albumin (Homo sapiens, UniProt P02768); experiment: Competition of CsA-loaded CA192 against human albumin (1 mM, 37° C.); type: in vitro ADME; conditions: 48 h
# Procedure: Per molecule of protein, CA192 (SEQ ID NO: 3) binds 10× more drug than albumin. […] The mixture was incubated at 37° C. and samples were collected at different time points up to 48 h. The ELP phase separation was induced to purify CA192 (SEQ ID NO: 3) from the mixture with Albumin, which was—followed by RP-HPLC analysis. (FIG. 4C) Instead of albumin, lipoproteins in the plasma, mainly high-(HDL) and low-(LDL) density lipoprotein, predominantly bind to cyclosporine in the plasma. Thus, CA192-CsA was also tested against mouse plasma over a period of 48 hr.
# Samples were collected from the dialysis cassette at different time points between 0 and 192 h and analyzed by RP-HPLC. […] The same drug release experiment was performed using CA192 dimer obtained via SEC. Dialysis was performed against PBS at 37° C. (FIG. 3B) and 4° C. (FIG. 3C). To further validate the release profile, as a control group, with the same encapsulation method, human albumin was explored to load CsA. […] The mixture was incubated at 37° C. and samples were collected at different time points up to 48 h. Another round of […] was performed to purify CA192 from the mixture, followed by RP-HPLC analysis. […] Similar to this competition method against albumin, 300 μM CA192-CsA in PBS was diluted 1:1 in mouse plasma to achieve a final concentration of 150 μM. […]
# [6] = Dynamic light scattering (DLS) hydrodynamic radius and stability; type: physicochemical
# Procedure: FIGS. 5A-5D: CA192 (SEQ ID NO: 3) has a good stability in terms of hydrodynamic radius. There are two fractions present in the CA192 (SEQ ID NO: 3) solution: an aggregated form and dimeric form. A dimerized form has similar hydrodynamic radius, Rh as A192. […] Drug-loaded CA192 (SEQ ID NO: 3) has a mean Rh of 64.5±0.5 nm (p<0.05). […] (FIG. 5C) Size Exclusion Chromatography (SEC) was conducted to fractionate CA192 (SEQ ID NO: 3) depending on their particle size. Two fractions were observed. […] In contrast, the fraction 1 contains a mixture of larger aggregates.
# The hydrodynamic radius (Rh) of both the loaded and unloaded fusion protein, along with plain A192, was measured via dynamic light scattering (DLS) using a DynaPro Plate Reader II from Wyatt Technology. Before the DLS measurement, solutions were filtered through […] pore size filters. The concentration of each solution was then adjusted to 20 μM. 60 μL from each sample was pipetted into three different wells on the plate reader and covered by 15 μL mineral oil each to avoid solvent evaporation. Centrifugation was then performed to remove air bubbles. […] Based on this DLS method, Applicants performed a stability assay to explore the stability of the fusion protein by measuring the mean Rh shift during incubation at physiological temperature. Briefly, the fusion solution was incubated at 37° C. for different periods of time up to 48 h and the mean Rh of CA192 at these different time points was measured with DLS. […] There might be some slight aggregation occurring in the CA192 protein solution. […] To determine if this was the case, further separation was conducted with size exclusion chromatography (SEC). This process was performed at 4° C. using a Hiload 26/600 column (26×600 mm, particle size 24-44 μM). […] Fragments with absorption above 10 mAu were collected and concentrated with a Spin-X concentrator (pore size 10 kDa). […] (FIG. 5D) Through measuring the CA192 concentration of both fractions, Applicants determined that 20.8% by mass in solution is represented by the multimerized particles. […]
# [7] = test system: HeLa cells; experiment: HeLa cell uptake, co-localization with lysosomes (confocal microscopy); type: cell-based; conditions: 30 μM rhodamine-labeled ELP; 120 min; LysoTracker Green
# Procedure: Lysosomes were labeled by LysoTracker Green® having the structure:
# In order to further validate the potential efficacy of CA192 working as a potent drug binding domain, an in vitro cell uptake study was performed. Briefly, CA192 and A192 was labeled with rhodamine and HeLa cell lysosome with LysoTracker Green (LTG)® having the structure as described herein. For the treatment group, HeLa cells were incubated with 30 μM of rhodamine-labeled (rh)-CA192 and 70 nM of LTG for 120 min. For the control group, HeLa cells were incubated with 30 μM of rhodamine-labeled (rh)-A192 and 70 nM of LTG for 120 min. Cells were then rinsed with warm HBSS three times, maintained in the fresh culture medium, and imaged by confocal microscopy. Images were acquired using a Zeiss laser scanning microscope 510 Meta NLO confocal imaging system equipped with Argon, red HeNe, green HeNe laser, and a Coherent Chameleon Ti-Sapphire laser (LSM) mounted on a vibration-free table (Carl Zeiss, Thornwood, N.Y.). All images were acquired using a Plan-Apochromat 63× Oil immersion lens with a working distance of 0.19 mm.
# [8] = SEC / Multi-Angle Static Light Scattering (MALS) of CA192 fractions; type: physicochemical
# Procedure: The hydrodynamic radius (Rh) of both the loaded and unloaded fusion protein, along with plain A192, was measured via dynamic light scattering (DLS) using a DynaPro Plate Reader II from Wyatt Technology. Before the DLS measurement, solutions were filtered through […] pore size filters. The concentration of each solution was then adjusted to 20 μM. 60 μL from each sample was pipetted into three different wells on the plate reader and covered by 15 μL mineral oil each to avoid solvent evaporation. Centrifugation was then performed to remove air bubbles. […] Based on this DLS method, Applicants performed a stability assay to explore the stability of the fusion protein by measuring the mean Rh shift during incubation at physiological temperature. Briefly, the fusion solution was incubated at 37° C. for different periods of time up to 48 h and the mean Rh of CA192 at these different time points was measured with DLS. […] There might be some slight aggregation occurring in the CA192 protein solution. […] To determine if this was the case, further separation was conducted with size exclusion chromatography (SEC). This process was performed at 4° C. using a Hiload 26/600 column (26×600 mm, particle size 24-44 μM). […] Fragments with absorption above 10 mAu were collected and concentrated with a Spin-X concentrator (pore size 10 kDa). Two fractions were observed after SEC separation (FIG. 5C). […] (FIG. 5D) Through measuring the CA192 concentration of both fractions, Applicants determined that 20.8% by mass in solution is represented by the multimerized particles. Multi-Angle static Light Scattering (MALS) was then applied to evaluate the aggregation and oligomeric state of CA192. […] Thus, it was concluded that the CA192 fusion protein is mostly maintained as dimerized nanoparticles with a 6.5 nm hydrodynamic radius.
# To further evaluate the aggregation and oligomeric state of each fraction, Multi-Angle Static Light Scattering (MALS) was then used to measure the molecular weight of both peaks. […] Similarly, fraction 1 was identified as aggregated form. […]
substance,measurement,setting,value
"(Val-Pro-Gly-Ser-Gly): ELP monoblock library, SEQ ID NO: 60 (VPGSG)",Tc,[1],63.6 ± 1.1 °C
same,m,[1],−1.86 ± 0.31 ° C./ln(μM)
same,K,[1],0 °C pentamers/ln(μM)
"CV96: cyclophilin A fused to ELP V96, SEQ ID NO: 4",CsA loading compared with a comparator,[2],higher loading ratio
same,Transition temperature (Tt),[3],31.2 °C
same,"Slope, m",[3]; Table 3,4.4 ° C./Log10(μm)
same,"Intercept, b",[3]; Table 3,36.8 °C
"5FA: 5 FKBP domains linked by ELP A24, SEQ ID NO: 10",Gibbs free energy,[4],−10 kJ/mol interactions
same,TAS,[4],−48 kJ/mol interactions
same,binding enthalpy,[4],−58 kJ/mol interactions
same,Kd,"[4]; true KD likely lower, beyond limit of detection, read-out: equilibrium dissociation constant (KD)",≤ 1.5 nM
same,Transition temperature at 25 μM,[3],53.2 °C
"5FV: 5 FKBP domains linked by ELP V24, SEQ ID NO: 11",Transition temperature at 25 μM,[3],27.7 °C
"CA192: cyclophilin A fused to ELP A192, SEQ ID NO: 3",transfer of CsA from CA192 to albumin,[5],No significant drug loss; also recorded: unable to extract CsA
same,CsA loading compared with a comparator,[2],significantly more drug than albumin
same,Transition temperature (Tt),[3],45.4 °C
same,"Slope, m","[3]; mean ± 95% CI, Table 2",1.3 ° C./Log10(μM) and 1.3 ± 0.27 ° C./Log10(μM)
same,"Intercept, b","[3]; mean ± 95% CI, Table 2",47.1 °C and 47.1 ± 0.39 °C
same,stability of Rh,"[6]; 37° C., up to 48 h",well maintained throughout 48 h; also recorded: no significant hydrodynamic radius shift; also recorded: stability over 2 days
same,mean hydrodynamic radius (Rh),"[6]; DLS intensity, 20 μM",64.8±0.7 nm
same,co-localization with lysosomes,[7],obvious co-localization with lysosome; also recorded: co-localized with lysosomes; also recorded: co-localizing with lysosomes
same,"Mass Fraction, Fraction 1 (Nano-aggregated form)",[8]; MALS,10.1%
same,"Mass Fraction, Fraction 2 (Dimeric form)",[8]; MALS,89.9%
same,multimerized particles in solution,[8]; from CA192 concentration of both SEC fractions,20.8 % by mass
"(Val-Pro-Gly-Ala-Gly): ELP monoblock library, SEQ ID NO: 61 (VPGAG)",Tc,[1],40.5 ± 1.6 °C
same,n,[1]; dependence on inverse of ELP length,7009 ± 345 °C pentamers
same,m,[1],0 ° C./ln(μM)
same,K,[1],−850.1 ± 51.5 °C pentamers/ln(μM)
